Here are results for 2 molecules from patent CN116041515A (NANJING IASO BIOTHERAPEUTICS TECH CO LTD, dated 2023).

Test [1] deals with T1, Streptavidin, Pierce 21125 (UniProt P22629 37-163, limits assumed).
T1 construct: Control protein coated on the plate; also called SA; Strepavidin
Description: ELISA with purified IgG-form antibody.

For test [2], the target named is T2, human-IL10-his-Bio, Kactus IL1-HM410B (human, UniProt P22301 19-178, biotinylated).
T2 construct: Unrelated control antigen; also called Kactus-IL10-Bio-his; not shown: his tag and biotin label
T2 sequence (P22301 19-178): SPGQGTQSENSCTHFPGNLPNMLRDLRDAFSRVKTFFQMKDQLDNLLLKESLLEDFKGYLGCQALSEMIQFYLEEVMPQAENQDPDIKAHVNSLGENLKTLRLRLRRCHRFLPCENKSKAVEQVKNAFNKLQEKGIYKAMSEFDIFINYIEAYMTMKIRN
Put plainly: ELISA with purified IgG-form antibody. A general note: In an ELISA, binding on a coated surface is turned into a signal by an enzyme label.

Test [3] concerns the target T3, Recombinant biotinylated Human BAFF-R Protein, Kactus BAF-HM40RB (human, UniProt Q96RJ3 1-78, biotinylated).
T3 construct: Bought; also called Kactus BAFF-R-his-Bio; Kactus BAFFR-his bio; not shown: his tag and biotin label
T3 sequence (looked up): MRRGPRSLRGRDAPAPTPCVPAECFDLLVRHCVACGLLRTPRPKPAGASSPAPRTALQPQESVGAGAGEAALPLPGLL
Description: BLI, IgG on the sensor, antigen 100 to 6.25 nM, 1:1 model.

Test [4] deals with T4, Biotinylated Human CD27 Ligand, HIS, Avitag, ACRObiosystem CDL-H82Q9 (human, UniProt P32970 39-193, limits assumed, biotinylated).
T4 construct: Unrelated control antigen; also called ACRO-CD70-his; Acro-CD70-his; not shown: HIS tag and Avitag
T4 sequence (looked up): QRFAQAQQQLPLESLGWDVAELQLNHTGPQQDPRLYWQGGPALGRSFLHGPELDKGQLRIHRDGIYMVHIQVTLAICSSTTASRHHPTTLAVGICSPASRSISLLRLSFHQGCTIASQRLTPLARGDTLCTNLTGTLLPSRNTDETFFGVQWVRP
Put plainly: phage ELISA.

The target of test [5] is T1, Streptavidin, Pierce 21125. Put plainly: phage ELISA.
The target of test [6] is T5, Recombinant biotinylated Human CD19 Protein, Kactus CD2-HE121 (human, UniProt P15391 20-291, biotinylated).
T5 construct: Unrelated control antigen; also called Kactus-CD19-Fc; not shown: Fc by the short name
T5 sequence (looked up): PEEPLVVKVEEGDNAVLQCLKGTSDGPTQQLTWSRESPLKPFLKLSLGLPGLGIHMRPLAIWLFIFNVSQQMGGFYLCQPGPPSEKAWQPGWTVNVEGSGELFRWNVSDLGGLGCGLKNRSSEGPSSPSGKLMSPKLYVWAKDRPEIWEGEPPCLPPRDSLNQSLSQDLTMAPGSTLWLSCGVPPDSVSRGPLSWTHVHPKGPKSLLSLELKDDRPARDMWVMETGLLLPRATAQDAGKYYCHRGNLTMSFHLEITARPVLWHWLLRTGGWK
Description: phage ELISA.

T1 sequence (P22629 37-163 limits assumed): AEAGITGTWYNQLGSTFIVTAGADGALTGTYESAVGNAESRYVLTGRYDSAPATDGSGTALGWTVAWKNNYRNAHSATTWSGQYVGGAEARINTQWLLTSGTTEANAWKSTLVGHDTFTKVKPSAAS

B1: Clone 10 IgG (Fc fusion)
chain: QSALTQPASVSGSPGQSITISCTGTSSDVGGYNYVSWYQQHPGKAPKLMIYEVSNRPSGVSNRFSGSKSGNTASLTISGLQAEDEADYYCSSYTSSSTYVFGTGTKVTVLGSRGGGGSGGGGSGGGGSLEQITLKESGPTLVKPTQTLTLTCTFSGFSLSTSGVGVGWIRQPPGKALEWLALIYWDDDKRYSPSLKSRLTITKDTSKNQVVLTMTNMDPVDTATYYCARYAGQYSGMWPWDYWGQGTLVTVSS
notes: also called anti-BAFF-R IgG; not shown: human IgG4 Fc
Take B1: the binding result in test [1] was “no binding”. The binding result in test [2] was “no binding”. For the same molecule, in test [3], the Kd – broadly, the free concentration of one partner at which half of the binding sites on the other are occupied at equilibrium, for simple one-to-one binding – amounted to 0.762 nM; the off-rate constant (koff) – broadly, the first-order rate constant of dissociation – amounted to 8.72e-05 s⁻¹; the kon (in general, the second-order rate constant of association) was found to be 114000 M⁻¹ s⁻¹.

B2: Clone 10 (phage-displayed scFv monoclonal) (scFv)
scFv: B1 chain
notes: the phage coat protein fusion is not described; also called #10号克隆
Regarding B2, the binding result in test [4], in test [5] and in test [6] was “no binding” throughout.
